In patent publication US20190134153A1, “IMMUNOMODULATORY EFFECT OF INHALED KINASE INHIBITOR PEPTIDES IN LUNG” (MOERAE MATRIX, INC., priority 2017, published 2019):

How the values were obtained:
Experiment in all cases: Kinase Profiling Assay
Type in all cases: biochemical
Details in all cases: 100 μM
[1] = target: Pyk2(h) (Homo sapiens, UniProt Q14289)
[2] = target: FGFR1(V561M)(h) (Homo sapiens, UniProt P11362, V561M)
[3] = target: T1, TBK1(h) (Homo sapiens, UniProt Q9UHD2)
T1 sequence (Q9UHD2 1-729): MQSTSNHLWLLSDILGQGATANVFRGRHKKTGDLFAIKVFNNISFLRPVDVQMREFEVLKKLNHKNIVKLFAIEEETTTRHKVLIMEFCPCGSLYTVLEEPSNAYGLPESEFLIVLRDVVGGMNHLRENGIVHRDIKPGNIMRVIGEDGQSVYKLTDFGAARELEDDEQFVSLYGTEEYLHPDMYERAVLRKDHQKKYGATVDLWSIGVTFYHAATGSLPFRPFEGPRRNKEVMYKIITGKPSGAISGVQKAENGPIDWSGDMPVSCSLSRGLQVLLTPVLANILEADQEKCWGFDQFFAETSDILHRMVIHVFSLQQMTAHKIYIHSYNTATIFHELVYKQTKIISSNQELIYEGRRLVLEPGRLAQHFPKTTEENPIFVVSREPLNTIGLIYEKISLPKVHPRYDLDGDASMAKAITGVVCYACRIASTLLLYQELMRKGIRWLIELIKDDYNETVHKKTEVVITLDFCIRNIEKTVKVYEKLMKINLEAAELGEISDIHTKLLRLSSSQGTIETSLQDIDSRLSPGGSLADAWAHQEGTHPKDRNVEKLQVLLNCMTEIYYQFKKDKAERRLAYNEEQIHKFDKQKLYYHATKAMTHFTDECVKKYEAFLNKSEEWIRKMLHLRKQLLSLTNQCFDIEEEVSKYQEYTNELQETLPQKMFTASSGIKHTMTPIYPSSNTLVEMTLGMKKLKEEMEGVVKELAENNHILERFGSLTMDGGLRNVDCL

[4] = target: BTK(h) (Homo sapiens, UniProt Q06187)
[5] = target: Rsk2(h) (Homo sapiens, UniProt P51812)
[6] = target: Fer(h) (Homo sapiens, UniProt P16591)
[7] = target: FGFR4(h) (Homo sapiens, UniProt P22455)
[8] = target: BRK(h) (Homo sapiens, UniProt Q13882)
[9] = target: ROCK-II(h) (Homo sapiens, UniProt O75116)
[10] = target: PKBβ(h) (Homo sapiens, UniProt P31751)
[11] = target: T2, PKD2(h) (Homo sapiens, UniProt Q9BZL6)
T2 sequence (Q9BZL6 1-878): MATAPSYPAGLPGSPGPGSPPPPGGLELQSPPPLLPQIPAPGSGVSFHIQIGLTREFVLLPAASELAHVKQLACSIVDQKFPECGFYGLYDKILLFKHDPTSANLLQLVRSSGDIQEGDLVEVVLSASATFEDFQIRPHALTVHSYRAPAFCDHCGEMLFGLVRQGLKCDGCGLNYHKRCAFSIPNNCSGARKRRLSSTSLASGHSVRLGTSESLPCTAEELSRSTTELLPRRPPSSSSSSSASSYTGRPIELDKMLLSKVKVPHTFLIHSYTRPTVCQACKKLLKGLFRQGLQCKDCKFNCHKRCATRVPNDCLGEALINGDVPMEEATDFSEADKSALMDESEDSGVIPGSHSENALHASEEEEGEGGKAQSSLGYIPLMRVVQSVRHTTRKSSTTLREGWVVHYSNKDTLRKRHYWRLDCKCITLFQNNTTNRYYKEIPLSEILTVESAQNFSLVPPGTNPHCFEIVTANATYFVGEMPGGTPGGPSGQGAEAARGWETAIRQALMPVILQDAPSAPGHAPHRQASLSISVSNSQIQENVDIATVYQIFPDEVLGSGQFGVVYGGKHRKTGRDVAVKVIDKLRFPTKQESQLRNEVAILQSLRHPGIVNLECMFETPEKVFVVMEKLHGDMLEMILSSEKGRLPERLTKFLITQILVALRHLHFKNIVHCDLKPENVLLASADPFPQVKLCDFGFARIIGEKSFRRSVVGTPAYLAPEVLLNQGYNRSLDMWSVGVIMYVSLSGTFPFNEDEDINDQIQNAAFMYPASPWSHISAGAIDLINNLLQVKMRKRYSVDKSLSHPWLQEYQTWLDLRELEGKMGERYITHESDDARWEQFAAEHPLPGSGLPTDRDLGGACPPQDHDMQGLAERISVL

[12] = target: PDGFRβ(h) (Homo sapiens, UniProt P09619)
[13] = target: T3, SGK2(h) (Homo sapiens, UniProt Q9HBY8)
T3 sequence (Q9HBY8 1-367): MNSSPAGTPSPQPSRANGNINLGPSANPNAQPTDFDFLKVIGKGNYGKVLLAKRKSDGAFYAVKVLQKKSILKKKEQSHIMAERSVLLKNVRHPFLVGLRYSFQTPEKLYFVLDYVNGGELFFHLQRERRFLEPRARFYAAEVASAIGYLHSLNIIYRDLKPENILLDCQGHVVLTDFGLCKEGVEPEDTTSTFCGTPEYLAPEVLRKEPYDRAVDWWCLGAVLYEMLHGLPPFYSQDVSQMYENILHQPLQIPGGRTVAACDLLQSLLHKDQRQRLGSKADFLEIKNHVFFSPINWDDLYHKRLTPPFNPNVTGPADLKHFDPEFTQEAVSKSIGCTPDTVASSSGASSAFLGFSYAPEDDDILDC

[14] = target: PDGFRα(V561D)(h) (Homo sapiens, UniProt P16234, V561D)
Sequence of PDGFRα(V561D)(h) (P16234 24-1089 V561D): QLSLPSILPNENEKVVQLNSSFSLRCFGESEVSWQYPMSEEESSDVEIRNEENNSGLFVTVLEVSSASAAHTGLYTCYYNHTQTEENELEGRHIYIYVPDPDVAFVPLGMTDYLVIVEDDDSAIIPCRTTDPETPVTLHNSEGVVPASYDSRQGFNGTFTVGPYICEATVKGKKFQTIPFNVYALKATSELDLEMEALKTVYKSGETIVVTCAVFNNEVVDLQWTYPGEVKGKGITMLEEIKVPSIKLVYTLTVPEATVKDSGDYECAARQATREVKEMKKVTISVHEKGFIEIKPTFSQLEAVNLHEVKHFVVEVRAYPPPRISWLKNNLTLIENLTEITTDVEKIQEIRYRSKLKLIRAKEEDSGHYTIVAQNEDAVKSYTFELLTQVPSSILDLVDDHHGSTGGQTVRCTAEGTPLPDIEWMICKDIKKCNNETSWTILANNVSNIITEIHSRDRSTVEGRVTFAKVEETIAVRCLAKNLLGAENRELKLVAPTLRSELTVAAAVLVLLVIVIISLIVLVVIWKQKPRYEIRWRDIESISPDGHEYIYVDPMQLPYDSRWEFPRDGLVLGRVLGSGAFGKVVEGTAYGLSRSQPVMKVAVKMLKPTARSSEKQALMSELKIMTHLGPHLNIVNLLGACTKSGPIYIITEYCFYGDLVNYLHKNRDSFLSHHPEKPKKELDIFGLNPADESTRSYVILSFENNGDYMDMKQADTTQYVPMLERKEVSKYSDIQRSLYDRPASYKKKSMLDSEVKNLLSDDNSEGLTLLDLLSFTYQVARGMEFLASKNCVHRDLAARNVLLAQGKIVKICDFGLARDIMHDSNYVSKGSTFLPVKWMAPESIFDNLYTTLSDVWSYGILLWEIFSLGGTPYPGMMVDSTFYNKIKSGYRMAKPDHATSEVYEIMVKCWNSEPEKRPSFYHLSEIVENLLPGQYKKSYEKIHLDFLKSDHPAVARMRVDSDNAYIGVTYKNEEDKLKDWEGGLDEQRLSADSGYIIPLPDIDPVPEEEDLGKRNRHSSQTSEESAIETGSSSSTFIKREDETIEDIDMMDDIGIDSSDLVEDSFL

Sequence of BTK(h) (Q06187 whole entry): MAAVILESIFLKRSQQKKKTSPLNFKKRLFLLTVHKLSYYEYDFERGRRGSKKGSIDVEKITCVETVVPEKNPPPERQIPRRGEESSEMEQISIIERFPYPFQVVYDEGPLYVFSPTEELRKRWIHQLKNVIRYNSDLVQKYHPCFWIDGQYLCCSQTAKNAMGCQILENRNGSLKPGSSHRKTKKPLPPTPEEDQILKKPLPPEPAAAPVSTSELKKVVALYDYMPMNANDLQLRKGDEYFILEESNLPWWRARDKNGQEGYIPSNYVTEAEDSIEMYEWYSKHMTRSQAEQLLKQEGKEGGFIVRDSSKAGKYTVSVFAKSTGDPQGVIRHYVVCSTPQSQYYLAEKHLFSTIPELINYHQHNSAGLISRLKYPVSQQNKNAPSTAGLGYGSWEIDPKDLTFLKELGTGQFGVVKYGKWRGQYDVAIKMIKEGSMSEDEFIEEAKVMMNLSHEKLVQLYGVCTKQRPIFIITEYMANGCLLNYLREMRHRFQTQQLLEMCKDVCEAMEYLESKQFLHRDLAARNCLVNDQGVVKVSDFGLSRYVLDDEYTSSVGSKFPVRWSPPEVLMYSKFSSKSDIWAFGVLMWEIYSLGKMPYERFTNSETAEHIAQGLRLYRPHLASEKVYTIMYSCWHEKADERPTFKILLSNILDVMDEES
Sequence of ROCK-II(h) (O75116 whole entry): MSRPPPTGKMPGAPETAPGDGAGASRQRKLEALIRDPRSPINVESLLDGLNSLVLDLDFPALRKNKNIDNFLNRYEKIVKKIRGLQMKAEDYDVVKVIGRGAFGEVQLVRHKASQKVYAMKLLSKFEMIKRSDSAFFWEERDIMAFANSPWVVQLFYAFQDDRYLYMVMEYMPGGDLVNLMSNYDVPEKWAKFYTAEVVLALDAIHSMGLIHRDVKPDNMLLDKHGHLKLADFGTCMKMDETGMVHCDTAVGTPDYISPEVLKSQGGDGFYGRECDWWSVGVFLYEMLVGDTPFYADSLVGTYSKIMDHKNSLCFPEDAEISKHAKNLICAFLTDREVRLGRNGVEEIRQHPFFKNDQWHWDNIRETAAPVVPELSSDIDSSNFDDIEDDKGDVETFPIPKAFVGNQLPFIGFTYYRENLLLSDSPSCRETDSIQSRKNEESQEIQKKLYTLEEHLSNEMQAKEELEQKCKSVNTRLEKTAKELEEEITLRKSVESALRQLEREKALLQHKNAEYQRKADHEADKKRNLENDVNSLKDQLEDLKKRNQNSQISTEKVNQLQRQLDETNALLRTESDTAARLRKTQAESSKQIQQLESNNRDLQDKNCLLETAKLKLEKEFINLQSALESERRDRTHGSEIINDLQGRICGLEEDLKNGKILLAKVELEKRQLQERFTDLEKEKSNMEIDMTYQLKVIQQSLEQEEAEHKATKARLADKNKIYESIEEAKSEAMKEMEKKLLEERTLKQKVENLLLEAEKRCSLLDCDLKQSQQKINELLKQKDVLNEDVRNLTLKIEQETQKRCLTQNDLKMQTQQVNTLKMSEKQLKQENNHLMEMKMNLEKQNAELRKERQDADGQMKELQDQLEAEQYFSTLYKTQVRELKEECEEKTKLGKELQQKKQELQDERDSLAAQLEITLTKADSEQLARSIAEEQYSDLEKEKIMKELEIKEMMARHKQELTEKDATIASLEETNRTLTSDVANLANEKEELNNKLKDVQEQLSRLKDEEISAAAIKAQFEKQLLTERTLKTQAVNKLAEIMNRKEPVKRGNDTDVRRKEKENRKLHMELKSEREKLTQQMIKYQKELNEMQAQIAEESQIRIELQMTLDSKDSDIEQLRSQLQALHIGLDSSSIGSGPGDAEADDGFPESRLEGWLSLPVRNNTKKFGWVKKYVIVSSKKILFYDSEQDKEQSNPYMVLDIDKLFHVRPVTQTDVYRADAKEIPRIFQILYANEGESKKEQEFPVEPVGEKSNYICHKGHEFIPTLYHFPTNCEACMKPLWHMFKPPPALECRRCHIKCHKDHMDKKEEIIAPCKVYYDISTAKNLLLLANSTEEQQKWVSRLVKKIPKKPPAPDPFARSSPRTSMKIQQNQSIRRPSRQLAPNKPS
Sequence of Fer(h) (P16591 whole entry): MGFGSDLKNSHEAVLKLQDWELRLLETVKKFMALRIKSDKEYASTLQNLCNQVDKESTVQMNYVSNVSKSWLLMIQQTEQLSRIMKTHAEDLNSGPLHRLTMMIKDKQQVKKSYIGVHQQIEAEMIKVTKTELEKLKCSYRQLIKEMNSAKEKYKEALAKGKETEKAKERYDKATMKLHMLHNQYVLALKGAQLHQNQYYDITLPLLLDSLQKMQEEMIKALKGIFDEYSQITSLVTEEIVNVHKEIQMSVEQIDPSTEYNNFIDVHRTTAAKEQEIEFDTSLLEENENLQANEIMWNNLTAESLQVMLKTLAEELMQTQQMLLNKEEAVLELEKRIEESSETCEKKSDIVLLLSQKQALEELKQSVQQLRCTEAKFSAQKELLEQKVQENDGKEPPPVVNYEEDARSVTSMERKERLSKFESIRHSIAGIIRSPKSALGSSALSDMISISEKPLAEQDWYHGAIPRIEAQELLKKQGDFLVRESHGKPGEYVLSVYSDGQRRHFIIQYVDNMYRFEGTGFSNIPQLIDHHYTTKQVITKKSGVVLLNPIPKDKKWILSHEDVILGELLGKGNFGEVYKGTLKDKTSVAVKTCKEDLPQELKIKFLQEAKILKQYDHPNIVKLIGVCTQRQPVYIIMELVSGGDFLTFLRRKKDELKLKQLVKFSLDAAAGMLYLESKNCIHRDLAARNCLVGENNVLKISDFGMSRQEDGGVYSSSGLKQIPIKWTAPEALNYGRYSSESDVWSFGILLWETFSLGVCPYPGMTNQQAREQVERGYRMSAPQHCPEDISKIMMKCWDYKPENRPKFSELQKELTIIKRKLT
Sequence of FGFR1(V561M)(h) (P11362 22-822 V561M): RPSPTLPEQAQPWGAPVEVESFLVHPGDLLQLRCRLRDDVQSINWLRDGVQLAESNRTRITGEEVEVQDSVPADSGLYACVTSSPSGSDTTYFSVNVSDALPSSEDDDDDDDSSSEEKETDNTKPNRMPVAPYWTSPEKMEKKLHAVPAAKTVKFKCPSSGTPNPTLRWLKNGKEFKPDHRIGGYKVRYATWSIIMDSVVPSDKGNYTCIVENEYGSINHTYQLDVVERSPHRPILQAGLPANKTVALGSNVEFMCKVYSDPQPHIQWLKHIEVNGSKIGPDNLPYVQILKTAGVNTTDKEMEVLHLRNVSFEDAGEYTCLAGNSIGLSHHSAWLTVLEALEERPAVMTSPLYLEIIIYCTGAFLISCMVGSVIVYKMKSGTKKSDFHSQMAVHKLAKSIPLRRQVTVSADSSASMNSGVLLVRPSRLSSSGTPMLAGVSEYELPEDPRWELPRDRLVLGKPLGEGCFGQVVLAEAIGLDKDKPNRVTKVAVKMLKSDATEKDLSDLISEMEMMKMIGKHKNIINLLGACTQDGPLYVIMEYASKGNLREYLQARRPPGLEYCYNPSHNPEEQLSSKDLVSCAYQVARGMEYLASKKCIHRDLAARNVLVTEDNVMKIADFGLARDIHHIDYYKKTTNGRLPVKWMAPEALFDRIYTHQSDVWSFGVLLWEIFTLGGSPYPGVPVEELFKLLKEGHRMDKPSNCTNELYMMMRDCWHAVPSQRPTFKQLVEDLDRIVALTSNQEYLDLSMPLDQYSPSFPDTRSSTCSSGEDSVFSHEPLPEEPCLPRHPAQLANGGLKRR

Row | Sequence | % activity [1] [%] | % activity [2] [%] | % activity [3] [%] | % activity [4] [%] | % activity [5] [%] | % activity [6] [%] | % activity [7] [%] | % activity [8] [%] | % activity [9] [%] | % activity [10] [%] | % activity [11] [%] | % activity [12] [%] | % activity [13] [%] | % activity [14] [%]
1 | YARAAARQARAKALNRQLGVA [MMI-0200] | 127 | 72 | 98 | 100 | 101 | 101 | 75 | 127 | 85 | 250 | 78 | 137 | – | –
2 | FAKLAARLYRKALARQLGVAA [MMI-0300] | 47 | 74 | 37 | – | 51 | 130 | 28 | 35 | 74 | 84 | 33 | 81 | 56 | 82
3 | KAFAKLAARLYRKALARQLGVAA [MMI-0400] | 34 | 74 | 39 | 94 | 38 | 108 | 19 | 18 | 77 | 98 | 25 | 53 | 98 | 100
4 | HRRIKAWLKKIKALARQLGVAA [MMI-0500] | 46 | – | 16 | 18 | 14 | 196 | 3 | 41 | 2 | 21 | 10 | 40 | −1 | 146
